The values below come from PMC11602133.

The target of assay [1] is AGAMOUS (AG), in vitro produced (Arabidopsis) (UniProt P17839). Nature of the assay: native gel or EMSA; in vitro produced proteins (wheat germ TnT) mixed with a DY-682 labelled ~100 bp DNA probe containing a CArG-box (SAUR10 probe); protein complexes read from the shifted bands on DNA; anti-FLAG antibody added for supershift where FUL-FLAG was used. In general terms: Mobility shift assays separate free from complexed probe on a gel.

Assay [2] has as its target SUPPRESSOR OF OVEREXPRESSION OF CONSTANS 1 (SOC1), in vitro produced (Arabidopsis) (UniProt O64645). The description is as above.

“And” between values parts separate entries of the source, which are not always exact repeats. Equal values may be shown once.

UniProt O64645, sequence (O64645 whole entry): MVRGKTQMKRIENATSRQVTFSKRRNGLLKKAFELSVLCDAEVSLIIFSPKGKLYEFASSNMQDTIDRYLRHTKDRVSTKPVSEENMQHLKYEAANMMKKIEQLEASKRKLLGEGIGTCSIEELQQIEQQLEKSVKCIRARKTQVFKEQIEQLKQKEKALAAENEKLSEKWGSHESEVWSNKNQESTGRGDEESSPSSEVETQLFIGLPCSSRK
AGAMOUS (AG), in vitro produced, P17839 1-252 (natural protein; other documents disagree on this pair), sequence (P17839 whole entry): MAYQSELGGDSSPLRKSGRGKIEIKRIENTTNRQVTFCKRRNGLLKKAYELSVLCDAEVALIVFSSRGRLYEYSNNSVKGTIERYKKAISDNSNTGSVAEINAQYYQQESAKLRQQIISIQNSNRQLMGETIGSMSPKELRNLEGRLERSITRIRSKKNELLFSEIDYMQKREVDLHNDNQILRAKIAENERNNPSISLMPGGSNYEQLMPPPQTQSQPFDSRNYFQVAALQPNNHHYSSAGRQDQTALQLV

As for “AGAMOUS (AG), in vitro produced, P17839 1-252 (natural protein; other documents disagree on this pair)”, the stoichiometry N in assay [1] stood at 2.

In the case of “SUPPRESSOR OF OVEREXPRESSION OF CONSTANS 1 (SOC1), in vitro produced (from UniProt O64645 1-214) (natural protein)”, in assay [2], the stoichiometry N was 2 and 4.

In general, stoichiometry N refers to the number of molecules, sites or subunits per partner or assembly.
